According to article PMC5698462, “Production of recombinant human procollagen type I C-terminal propeptide and establishment of a sandwich ELISA for quantification” (Scientific Reports, 2017):

B1: Procollagen type I carboxy-terminal propeptide α2 chain (PICPα2), residues 1120–1366, with N-terminal c-myc tag (domain or fragment, human, UniProt P08123 1120-1366, looked up)
chain: DQPRSAPSLRPKDYEVDATLKSLNNQIETLLTPEGSRKNPARTCRDLRLSHPEWSSGYYWIDPNQGCTMDAIKVYCDFSTGETCIRAQPENIPAKNWYRSSKDKKHVWLGETINAGSQFEYNVEGVTSKEMATQLAFMRLLANYASQNITYHCKNSIAYMDEETGNLKKAVILQGSNDVELVAEGNSRFTYTVLVDGCSKKTNEWGKTIIEYKTNKPSRLPFLDIAPLDIGGADQEFFVDIGPVCFK
notes: C-terminal propeptide of the human type I procollagen α2 chain, residues 1120–1366 (residue numbers of type I procollagen); a restriction site was removed by a silent mutation; Cloned into pSecTag2A (AscI/ApaI) for secretion; also called c-myc-tagged PICPα2; source: HEK293F, transiently co-transfected with the PICPα1 plasmid (PICPα1:PICPα2 2:1 molar ratio), secreted; co-purified from culture …
B2: Procollagen type I carboxy-terminal propeptide α1 chain (PICPα1), residues 1218–1464, with N-terminal 8× His tag (domain or fragment, human, UniProt P02452 1218-1464, looked up)
chain: ADDANVVRDRDLEVDTTLKSLSQQIENIRSPEGSRKNPARTCRDLKMCHSDWKSGEYWIDPNQGCNLDAIKVFCNMETGETCVYPTQPSVAQKNWYISKNPKDKRHVWFGESMTDGFQFEYGGQGSDPADVAIQLTFLRLMSTEASQNITYHCKNSVAYMDQQTGNLKKALLLQGSNEIEIRAEGNSRFTYSVTVDGCTSHTGAWGKTVIEYKTTKTSRLPIIDVAPLDVGAPDQEFGFDVGPVCFL
notes: C-terminal propeptide of the human type I procollagen α1 chain, residues 1218–1464 (residue numbers of type I procollagen); Cloned into pSecTag2A (AscI/ApaI) for secretion; Two copies of this chain stand with one PICPα2 chain in the disulfide-linked PICP heterotrimer; also called 8× His-tagged PICPα1; recombinant PICPα1 chain; source: HEK293F, transiently co-transfected with the PICPα2 plasmid at …
B3: Procollagen type III C-terminal propeptide (PIIICP), homotrimer of PIIICPα1 (residues 1222–1466) with N-terminal 8× His tag (domain or fragment, human, UniProt P02461 1222-1466, looked up)
chain: DEPMDFKINTDEIMTSLKSVNGQIESLISPDGSRKNPARNCRDLKFCHPELKSGEYWVDPNQGCKLDAIKVFCNMETGETCISANPLNVPRKHWWTDSSAEKKHVWFGESMDGGFQFSYGNPELPEDVLDVHLAFLRLLSSRASQNITYHCKNSIAYMDQASGNVKKALKLMGSNEGEFKAEGNSKFTYTVLEDGCTKHTGEWSKTVFEYRTRKAVRLPIVDIAPYDIGGPDQEFGVDVGPVCFL
notes: C-terminal propeptide of the human type III procollagen α1 chain, residues 1222–1466; Mammalian secretion plasmid; also called 8× His-tagged PIIICPα1; recombinant PIIICP; source: HEK293F, transiently transfected, secreted; purified from culture supernatant (Ni-NTA); not shown: 8× His, N-terminal, kept

What was measured:
[1] = biological target: B2; assay: pull-down; Ni-NTA purification through the 8× His tag on PICPα1 from culture supernatant of HEK293F cells co-transfected with PICPα1 and PICPα2 plasmids (2:1); western blot with anti-His and anti-c-myc antibodies, non-reducing and reducing SDS-PAGE; details: partners not purified
[2] = biological target: B1; assay: non-reducing and reducing SDS-PAGE (stain, western blot) and SDS-CGE; purified proteins run under non-reducing and reducing conditions; band intensity (ImageJ) and peak area (Agilent 2100 bioanalyzer, Protein 230 kit) quantified; disulfide-linked trimers; details: both partners purified
[3] = biological target: the molecule itself; assay: SEC; Superdex 200 10/300 GL; purified PICP (2 mg/mL) in TBS (500 mM NaCl, 2.7 mM KCl, 12 mM Tris, pH 7.4); purified PIIICP in PBS pH 7.4; apparent molecular weight against standard markers

Binder: B1
binding result [1]: binds

Binder: B2
stoichiometry N [2]: 2 PICPα1 chains per PICPα2 chain

Binder: B3
stoichiometry N [3]: 3
